Measured values taken from US20130260455A1 (ONCOMED PHARMACEUTICALS, published 2013).

T1: hN2 1-7 (human Notch2 amino acids 1-301 fused to hFc) (human, UniProt Q04721 26-301)
T1 construct: not shown: constant region of human IgG (hFc)
T1 sequence: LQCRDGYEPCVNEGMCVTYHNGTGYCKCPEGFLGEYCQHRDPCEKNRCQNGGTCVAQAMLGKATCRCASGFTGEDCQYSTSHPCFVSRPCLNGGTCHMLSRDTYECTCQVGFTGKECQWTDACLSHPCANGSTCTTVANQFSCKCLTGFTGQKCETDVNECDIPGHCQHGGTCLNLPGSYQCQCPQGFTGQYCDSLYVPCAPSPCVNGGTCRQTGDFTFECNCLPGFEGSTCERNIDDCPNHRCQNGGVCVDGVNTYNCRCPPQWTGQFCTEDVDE

T2: hN2 1-8 (human Notch2 amino acids 1-341 fused to hFc) (human, UniProt Q04721 26-341)
T2 construct: not shown: constant region of human IgG (hFc)
T2 sequence: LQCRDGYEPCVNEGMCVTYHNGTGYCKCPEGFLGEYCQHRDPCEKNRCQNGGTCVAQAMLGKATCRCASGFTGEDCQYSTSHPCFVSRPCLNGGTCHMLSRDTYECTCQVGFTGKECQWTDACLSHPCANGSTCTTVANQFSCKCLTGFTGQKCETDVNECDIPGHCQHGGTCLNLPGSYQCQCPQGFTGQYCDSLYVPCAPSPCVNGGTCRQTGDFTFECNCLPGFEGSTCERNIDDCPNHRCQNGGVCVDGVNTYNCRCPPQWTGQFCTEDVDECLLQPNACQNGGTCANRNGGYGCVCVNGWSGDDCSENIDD

T3: hN2 1-6 (human Notch2 amino acids 1-263 fused to hFc) (human, UniProt Q04721 26-263)
T3 construct: not shown: constant region of human IgG (hFc)
T3 sequence: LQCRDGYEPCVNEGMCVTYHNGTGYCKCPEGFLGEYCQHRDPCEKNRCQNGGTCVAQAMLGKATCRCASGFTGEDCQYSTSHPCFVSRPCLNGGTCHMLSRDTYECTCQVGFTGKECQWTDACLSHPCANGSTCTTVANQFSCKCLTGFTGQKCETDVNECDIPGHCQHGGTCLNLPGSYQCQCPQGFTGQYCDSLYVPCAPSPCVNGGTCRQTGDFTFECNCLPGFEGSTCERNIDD

T4: hN2 1-9 (human Notch2 amino acids 1-378 fused to hFc) (human, UniProt Q04721 26-378)
T4 construct: not shown: constant region of human IgG (hFc)
T4 sequence: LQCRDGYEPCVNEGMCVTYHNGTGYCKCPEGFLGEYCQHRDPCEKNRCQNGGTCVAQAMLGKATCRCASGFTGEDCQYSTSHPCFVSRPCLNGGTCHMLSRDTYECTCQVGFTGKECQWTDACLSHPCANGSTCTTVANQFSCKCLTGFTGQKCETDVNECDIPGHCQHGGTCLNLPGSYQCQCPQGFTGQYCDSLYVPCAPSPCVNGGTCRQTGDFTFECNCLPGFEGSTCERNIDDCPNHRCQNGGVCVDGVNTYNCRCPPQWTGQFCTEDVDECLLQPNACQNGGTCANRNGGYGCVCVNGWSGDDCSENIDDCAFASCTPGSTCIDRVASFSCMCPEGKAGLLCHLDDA

T5: hN2 12-12 (human Notch2 amino acids 454-493 fused to hFc) (human, UniProt Q04721 454-493)
T5 construct: not shown: constant region of human IgG (hFc)
T5 chain: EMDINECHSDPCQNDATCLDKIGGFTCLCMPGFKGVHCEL

T6: hN2 11-12 (human Notch2 amino acids 413-493 fused to hFc) (human, UniProt Q04721 413-493)
T6 construct: not shown: constant region of human IgG (hFc)
T6 sequence: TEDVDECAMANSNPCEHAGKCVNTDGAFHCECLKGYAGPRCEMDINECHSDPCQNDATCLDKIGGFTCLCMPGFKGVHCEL

T7: recombinant human Notch3 (EGF9-14) (human, UniProt Q9UM47 351-580)
T7 construct: The whole entry for hNotch3 is named here; also called hNotch3; h-Notch3
T7 sequence: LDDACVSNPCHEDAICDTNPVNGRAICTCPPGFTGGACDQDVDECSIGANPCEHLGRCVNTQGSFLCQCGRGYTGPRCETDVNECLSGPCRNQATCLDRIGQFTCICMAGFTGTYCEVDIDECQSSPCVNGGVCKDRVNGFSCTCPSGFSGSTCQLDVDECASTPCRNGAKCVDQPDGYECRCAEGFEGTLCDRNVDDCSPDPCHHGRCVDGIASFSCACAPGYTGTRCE

T8: recombinant mouse Notch3 (EGF9-14) (mouse, UniProt Q61982 352-581)
T8 construct: domain: EGF9-14; also called mNotch3; m-Notch3
T8 sequence (looked up): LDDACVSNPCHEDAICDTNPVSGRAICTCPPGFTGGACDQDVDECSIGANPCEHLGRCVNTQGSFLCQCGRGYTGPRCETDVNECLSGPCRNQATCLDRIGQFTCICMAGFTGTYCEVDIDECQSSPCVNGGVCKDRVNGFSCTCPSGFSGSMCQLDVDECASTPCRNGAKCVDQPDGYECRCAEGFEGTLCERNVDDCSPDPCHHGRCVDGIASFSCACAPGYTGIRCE

T9: recombinant mouse Notch2 (EGF10-15) (mouse, UniProt O35516 375-605)
T9 construct: domain: EGF10-15; also called mNotch2; m-Notch2
T9 sequence (looked up): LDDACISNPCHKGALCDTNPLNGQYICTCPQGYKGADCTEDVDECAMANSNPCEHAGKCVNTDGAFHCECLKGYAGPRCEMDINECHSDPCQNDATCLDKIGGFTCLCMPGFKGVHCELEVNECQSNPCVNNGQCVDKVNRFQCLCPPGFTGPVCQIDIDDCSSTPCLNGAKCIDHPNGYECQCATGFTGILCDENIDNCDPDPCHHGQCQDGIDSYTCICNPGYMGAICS

T10: human Notch2 as used in the Biacore analysis of Table 6 (construct not stated) (human, UniProt Q04721 375-605, limits assumed)
T10 construct: also called h-Notch2
T10 sequence: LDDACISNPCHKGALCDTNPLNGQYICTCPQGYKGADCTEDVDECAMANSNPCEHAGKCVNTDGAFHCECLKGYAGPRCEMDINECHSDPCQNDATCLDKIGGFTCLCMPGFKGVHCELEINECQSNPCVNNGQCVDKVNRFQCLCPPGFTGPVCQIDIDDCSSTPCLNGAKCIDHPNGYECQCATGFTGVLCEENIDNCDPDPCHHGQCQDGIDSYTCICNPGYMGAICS


Key:
[1] = target: T11, hN2 1-4 (human Notch2 amino acids 1-181 fused to hFc) (human, UniProt Q04721 26-181); experiment: capture ELISA: hN2-hFc from HEK-293 supernatant on anti-human Fc plates, 59R1 Fab, HRP anti-human Fab [upper graph]
T11 construct: not shown: constant region of human IgG (hFc)
Description: (§1) The binding of anti-Notch2/3 antibodies to supernatant from HEK 293 cells transfected with sequences encoding recombinant human Notch2 Fc fusion proteins comprising the full length human Notch2 protein or various human Notch2 deletion constructs containing various deletions of EGF repeats one to twelve were tested by ELISA. HEK-293 cells were transiently transfected with pcDNA 3.1 (Invitrogen) with hNotch2 cDNA's encoding for the indicated amino acids fused to the constant region of human IgG (hFc). Supernatants were harvested 48 hours later. To capture hN2-hfc proteins, 96 well plates were first coated with goat anti-human Fec gamma specific IgG (Jackson Immunochemicals, #109-006-098) at 100 ng per well in sodium bicarbonate buffer overnight at 4°. Plates were washed and blocked in 5% bovine serum/PBS-Tween-20. Supernatants were added to plates and incubated at room temperature for 1 hour. Plates were washed in PBS-T. 59R1 Fab was added at 10 μg/ml in 5% serum/PBS-T and incubated at room temperature for 1 hour. Plates were washed in PBS-T. Fab binding was detected by goat anti-human Fab specific antibody conjugated to horseradish peroxidase (Thermo. #31414) diluted 1:5000 in 5% serum/PBS-T for 1 hour at room temperature. Plates were washed and developed with 1 Step Ultra TMB (Thermo. #34028). Plates were read on a Perkin Elmer Victor 1420 plate reader. […] (FIG. 3A).

[2] = target: T1, hN2 1-7 (human Notch2 amino acids 1-301 …); experiment: as above
Description: as §1

[3] = target: T12, hN2 1-5 (human Notch2 amino acids 1-221 fused to hFc) (human, UniProt Q04721 26-221); experiment: as above
T12 construct: not shown: constant region of human IgG (hFc)
Description: as §1

[4] = target: T2, hN2 1-8 (human Notch2 amino acids 1-341 …); experiment: as above
Description: as §1

[5] = target: T3, hN2 1-6 (human Notch2 amino acids 1-263 …); experiment: as above
Description: as §1

[6] = target: T4, hN2 1-9 (human Notch2 amino acids 1-378 …); experiment: as above
Description: as §1

[7] = target: T13, hN2 1-3 (human Notch2 amino acids 1-144 fused to hFc) (human, UniProt Q04721 26-144); experiment: as above
T13 construct: Supernatant of transfected HEK-293 cells, captured with anti-human Fc; not shown: constant region of human IgG (hFc)
Description: as §1

[8] = target: T5, hN2 12-12 (human Notch2 amino acids …); experiment: capture ELISA: hN2-hFc from HEK-293 supernatant on anti-human Fc plates, 59R1 Fab, HRP anti-human Fab [lower graph]
Description: as §1

[9] = target: T6, hN2 11-12 (human Notch2 amino acids …); experiment: as above
Description: as §1

[10] = target: T14, human Notch1, full length, on transfected cells (human, UniProt P46531 19-2555); experiment: FACS on HEK 293 cells transiently transfected with Notch1 Full Length and GFP
T14 construct: also called hNotch1
Description: FIG. 15. In vitro characterization of 59R5. […] PC3 tumor cells were transiently transfected with human or mouse Notch receptor (hN2, human Notch2; mN2, murine Notch2; hN3, human Notch3; mN3, murine Notch3) and GFP inducible reporter construct. Transfected cells were incubated with different concentrations of antibody 59R1 and 59R5 in the presence of passively immobilized DLL4 Fc. […] Cells were also co-transfected with a plasmid encoding green fluorescent protein (GFP) to mark those cells that received transfected plasmid. Cells were incubated with 59R1 or 59R5 and fluorescent secondary antibody and then examined by FACS.
The binding epitope of 59R5 was determined. As was described in Example 3 for analysis of antibody 59R1, several point mutants were created within full-length Notch1, converting residues within EGF10 to the corresponding amino acids in human Notch 2. Mutants in full-length Notch sequences were generated by QuikChange® mutagenesis (Stratagene) and verified by sequencing. […] Cells were also co-transfected with a plasmid encoding green fluorescent protein (GFP) to mark those cells that received transfected plasmid. Cells were incubated with 59R1 or 59R5 and fluorescent secondary antibody and then examined by FACS. 59R1 and 59R5 were detected by PE-conjugated goat anti-human Fc gamma specific antibody (Jackson Immunochemicals, #109-116-170).

[11] = target: T7, recombinant human Notch3 (EGF9-14); experiment: Biacore SPR
[12] = target: T8, recombinant mouse Notch3 (EGF9-14); experiment: Biacore SPR
[13] = target: T9, recombinant mouse Notch2 (EGF10-15); experiment: Biacore SPR
[14] = target: T10, human Notch2 as used in the Biacore …; experiment: Biacore SPR

T14 sequence (P46531 19-2555 limits assumed): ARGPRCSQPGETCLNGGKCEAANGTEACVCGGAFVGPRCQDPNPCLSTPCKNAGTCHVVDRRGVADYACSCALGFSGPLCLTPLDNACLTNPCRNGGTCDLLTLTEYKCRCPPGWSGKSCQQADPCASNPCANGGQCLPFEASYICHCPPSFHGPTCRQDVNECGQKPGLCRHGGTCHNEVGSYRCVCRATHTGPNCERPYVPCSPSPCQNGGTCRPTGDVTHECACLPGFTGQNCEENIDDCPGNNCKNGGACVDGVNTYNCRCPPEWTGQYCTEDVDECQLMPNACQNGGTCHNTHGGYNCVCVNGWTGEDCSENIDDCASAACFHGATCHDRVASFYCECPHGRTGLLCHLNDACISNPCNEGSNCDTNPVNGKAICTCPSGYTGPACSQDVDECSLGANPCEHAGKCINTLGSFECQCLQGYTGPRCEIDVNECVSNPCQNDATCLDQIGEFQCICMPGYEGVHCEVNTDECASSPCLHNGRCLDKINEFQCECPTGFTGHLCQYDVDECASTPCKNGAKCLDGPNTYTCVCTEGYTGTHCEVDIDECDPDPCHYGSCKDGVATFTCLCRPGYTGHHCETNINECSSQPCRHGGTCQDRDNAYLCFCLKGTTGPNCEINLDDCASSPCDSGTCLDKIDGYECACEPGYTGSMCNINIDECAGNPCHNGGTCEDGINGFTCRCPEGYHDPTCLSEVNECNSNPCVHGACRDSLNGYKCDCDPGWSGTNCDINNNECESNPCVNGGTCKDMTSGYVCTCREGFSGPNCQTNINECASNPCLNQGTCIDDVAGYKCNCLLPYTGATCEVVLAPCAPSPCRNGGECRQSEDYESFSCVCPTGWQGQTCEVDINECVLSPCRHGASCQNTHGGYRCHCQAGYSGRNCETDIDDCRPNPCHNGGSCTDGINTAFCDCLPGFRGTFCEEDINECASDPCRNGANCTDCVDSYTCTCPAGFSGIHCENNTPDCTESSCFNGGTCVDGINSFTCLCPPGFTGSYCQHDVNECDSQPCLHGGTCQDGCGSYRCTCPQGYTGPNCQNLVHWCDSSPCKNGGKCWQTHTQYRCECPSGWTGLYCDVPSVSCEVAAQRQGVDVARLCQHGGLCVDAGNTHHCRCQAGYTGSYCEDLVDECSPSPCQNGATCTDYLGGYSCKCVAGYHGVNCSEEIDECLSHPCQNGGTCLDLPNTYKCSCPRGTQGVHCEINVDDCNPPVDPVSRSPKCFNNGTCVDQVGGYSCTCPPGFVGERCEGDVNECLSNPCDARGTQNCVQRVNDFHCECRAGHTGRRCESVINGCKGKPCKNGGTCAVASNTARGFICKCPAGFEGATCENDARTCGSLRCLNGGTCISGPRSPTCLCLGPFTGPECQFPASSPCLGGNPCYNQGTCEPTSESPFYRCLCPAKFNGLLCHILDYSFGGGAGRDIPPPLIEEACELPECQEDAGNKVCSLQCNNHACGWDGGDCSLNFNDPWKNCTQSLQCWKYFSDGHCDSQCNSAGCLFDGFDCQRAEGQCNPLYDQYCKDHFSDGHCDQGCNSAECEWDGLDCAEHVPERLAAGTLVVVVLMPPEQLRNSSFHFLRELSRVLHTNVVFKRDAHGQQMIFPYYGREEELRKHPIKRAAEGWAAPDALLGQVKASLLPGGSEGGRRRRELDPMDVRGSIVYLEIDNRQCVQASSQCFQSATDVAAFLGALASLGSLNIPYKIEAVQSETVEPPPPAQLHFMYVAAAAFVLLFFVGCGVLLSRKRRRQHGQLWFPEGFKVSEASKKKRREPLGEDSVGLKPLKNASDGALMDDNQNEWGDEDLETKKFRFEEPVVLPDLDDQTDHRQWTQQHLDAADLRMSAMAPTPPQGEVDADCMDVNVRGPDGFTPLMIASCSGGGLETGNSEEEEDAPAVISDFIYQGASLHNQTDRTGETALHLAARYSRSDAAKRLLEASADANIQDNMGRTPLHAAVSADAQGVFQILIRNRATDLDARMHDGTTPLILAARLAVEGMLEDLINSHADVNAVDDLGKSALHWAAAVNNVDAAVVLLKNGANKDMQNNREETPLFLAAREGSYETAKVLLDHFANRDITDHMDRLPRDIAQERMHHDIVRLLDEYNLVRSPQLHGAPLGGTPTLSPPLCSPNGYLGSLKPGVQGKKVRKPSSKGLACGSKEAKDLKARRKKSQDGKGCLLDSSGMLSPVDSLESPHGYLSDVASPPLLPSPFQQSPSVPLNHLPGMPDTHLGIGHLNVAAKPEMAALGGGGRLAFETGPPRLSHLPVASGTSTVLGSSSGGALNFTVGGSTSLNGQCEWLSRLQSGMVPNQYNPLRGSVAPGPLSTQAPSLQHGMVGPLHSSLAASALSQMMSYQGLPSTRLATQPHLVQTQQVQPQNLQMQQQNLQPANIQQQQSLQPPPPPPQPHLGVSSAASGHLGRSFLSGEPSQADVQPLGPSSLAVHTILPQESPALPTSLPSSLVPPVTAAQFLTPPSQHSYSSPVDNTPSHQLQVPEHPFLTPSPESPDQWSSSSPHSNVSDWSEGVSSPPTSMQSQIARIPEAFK

Row | Binder | binding result [1] | binding result [2] | binding result [3] | binding result [4] | binding result [5] | binding result [6] | binding result [7] | binding result [8] | binding result [9] | binding result [10] | Kd [11] [nM] | Kd [12] [nM] | Kd [13] [nM] | Kd [14] [nM]
1 | 59R1 Fab (Fab, V domains shown, also called Clone 1; 59R Fab antibody) VH: QVQLVESGGGLVQPGGSLRLSCAASGFTFSSSGMSWVRQAPGKGLEWVSVIASSGSNTYYADSVKGRFTISRDNSKNTLYLQMNSLRAEDTAVYYCARGIFFAIWGQGTLVTVSS VL: not shown | no binding (tested: 10 ug/ml) | no binding (tested: 10 ug/ml) | no binding (tested: 10 ug/ml) | no binding (tested: 10 ug/ml) | no binding (tested: 10 ug/ml) | no binding (tested: 10 ug/ml) | no binding (tested: 10 ug/ml) | no binding (tested: 10 ug/ml) | no binding (tested: 10 ug/ml) |  |  |  |  | 
2 | 59R5 antibody (antibody, human IgG2, kappa, V domains shown, Human IgG2; also called anti-Notch2/3 antibody 59R5; 59R5 IgG2) VH: EVQLVESGGGLVQPGGSLRLSCAASGFTFSSSGMSWVRQAPGKGLEWVSVIASSGSNTYYADSVKGRFTISRDNSKNTLYLQMNSLRAEDTAVYYCARSIFYTTWGQGTLVTVSS VL: not shown |  |  |  |  |  |  |  |  |  | no binding | 0.22 | 0.29 | 0.26 | 0.05
